Experimental data taken from the supplement of paper PMC9112550, “Optimization of the antimicrobial peptide Bac7 by deep mutational scanning” (BMC Biology, 2022).

Each sequence was assayed on Escherichia coli TOP10 (assay: shrunken log2 fold change of peptide-encoding DNA abundance (4.5 h post-induction vs induction); higher = less antimicrobial activity (less host growth inhibition)). Conditions: time post-induction: 4.5 h; library: site-saturation at positions 5, 18, 19, 20.
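Note: peptides expressed intracellularly from a pBAD plasmid library in pooled LB shake-flask culture, induced with 0.3% L-arabinose, DNA abundance read by NGS, three biological replicates, DESeq2 with apeglm shrinkage.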

| Sequence | shrunken log2 fold change |
| --- | --- |
| RRIRIRPPRLPRPRPRPVDCPRP | 0.0257 |
| RRIRDRPPRLPRPRPRPSDEPRP | 0.406 |
| RRIRGRPPRLPRPRPRPRLTPRP | 0.948 |
| RRIRIRPPRLPRPRPRPNYLPRP | -0.171 |
| RRIRTRPPRLPRPRPRPHYLPRP | -0.194 |
| RRIRWRPPRLPRPRPRPCWRPRP | 0.0637 |
| RRIRPRPPRLPRPRPRPDATPRP | 0.625 |
| RRIRERPPRLPRPRPRPNAYPRP | -0.0628 |
| RRIRGRPPRLPRPRPRPGSGPRP | 0.808 |
| RRIRPRPPRLPRPRPRPETIPRP | -0.157 |
| RRIRFRPPRLPRPRPRPVMHPRP | -0.461 |
| RRIRCRPPRLPRPRPRPLWMPRP | -0.378 |
| RRIRERPPRLPRPRPRPPMIPRP | -0.0526 |
| RRIRSRPPRLPRPRPRPQEHPRP | -0.112 |
| RRIRTRPPRLPRPRPRPPCCPRP | 0.00432 |
| RRIRWRPPRLPRPRPRPMVYPRP | 0.0222 |
| RRIRVRPPRLPRPRPRPAILPRP | -0.204 |
| RRIRSRPPRLPRPRPRPFGNPRP | -0.00151 |
| RRIRNRPPRLPRPRPRPPSIPRP | -0.0153 |
| RRIRPRPPRLPRPRPRPATWPRP | 0.253 |
| RRIRIRPPRLPRPRPRPTCMPRP | -0.059 |
| RRIRYRPPRLPRPRPRPYWFPRP | -0.142 |
| RRIRTRPPRLPRPRPRPWNHPRP | 0.0317 |

| Sequence | shrunken log2 fold change |
| --- | --- |
| RRIRCRPPRLPRPRPRPRRSPRP | 0.762 |
| RRIRQRPPRLPRPRPRPPFMPRP | 0.213 |
| RRIRCRPPRLPRPRPRPSFVPRP | -0.68 |
| RRIRWRPPRLPRPRPRPMTWPRP | 2.14 |
| RRIRQRPPRLPRPRPRPEWEPRP | 0.00902 |
| RRIRNRPPRLPRPRPRPYIEPRP | -0.275 |
| RRIRIRPPRLPRPRPRPWGNPRP | -0.803 |
| RRIRFRPPRLPRPRPRPVTFPRP | -0.213 |
| RRIRLRPPRLPRPRPRPADGPRP | -0.082 |
| RRIRHRPPRLPRPRPRPAFCPRP | 0.0444 |
| RRIRMRPPRLPRPRPRPTPKPRP | 0.107 |
| RRIRYRPPRLPRPRPRPERFPRP | 0.0461 |
| RRIRARPPRLPRPRPRPQACPRP | 0.0559 |
| RRIRFRPPRLPRPRPRPHMIPRP | -0.395 |
| RRIRARPPRLPRPRPRPEYVPRP | 0.0744 |
| RRIRSRPPRLPRPRPRPSSIPRP | -0.379 |
| RRIRRRPPRLPRPRPRPYVVPRP | -0.121 |
| RRIRCRPPRLPRPRPRPAAWPRP | 0.252 |
| RRIRDRPPRLPRPRPRPYVSPRP | -0.032 |
| RRIRWRPPRLPRPRPRPFCVPRP | -0.0188 |
| RRIRARPPRLPRPRPRPQERPRP | 0.0703 |
| RRIRDRPPRLPRPRPRPLVKPRP | 0.0947 |
| RRIRCRPPRLPRPRPRPLCQPRP | -0.949 |

| Sequence | shrunken log2 fold change |
| --- | --- |
| RRIRDRPPRLPRPRPRPTYRPRP | -0.224 |
| RRIRIRPPRLPRPRPRPWSTPRP | -0.358 |
| RRIRCRPPRLPRPRPRPIDWPRP | 0.0664 |
| RRIRCRPPRLPRPRPRPPQYPRP | -0.0607 |
| RRIRCRPPRLPRPRPRPFKRPRP | -0.219 |
| RRIRLRPPRLPRPRPRPASTPRP | 0.0489 |
| RRIRHRPPRLPRPRPRPFCPPRP | -0.772 |
| RRIRNRPPRLPRPRPRPWYYPRP | -0.122 |
| RRIRPRPPRLPRPRPRPWDCPRP | -0.0719 |
| RRIRGRPPRLPRPRPRPGSQPRP | 0.722 |
| RRIRDRPPRLPRPRPRPHSYPRP | -0.0739 |
| RRIRIRPPRLPRPRPRPWSVPRP | -0.541 |
| RRIRNRPPRLPRPRPRPGLIPRP | 0.16 |
| RRIRTRPPRLPRPRPRPMTFPRP | 0.0754 |
| RRIRDRPPRLPRPRPRPILIPRP | -0.0335 |
| RRIRTRPPRLPRPRPRPLELPRP | -0.176 |
| RRIRKRPPRLPRPRPRPTRMPRP | 0.651 |
| RRIRCRPPRLPRPRPRPSSTPRP | -0.855 |
| RRIRMRPPRLPRPRPRPFGTPRP | -0.112 |
| RRIRWRPPRLPRPRPRPMKRPRP | 0.0121 |
| RRIRRRPPRLPRPRPRPSDMPRP | -0.463 |
| RRIRHRPPRLPRPRPRPSSVPRP | 0.0608 |
| RRIRNRPPRLPRPRPRPMWNPRP | -0.294 |

| Sequence | shrunken log2 fold change |
| --- | --- |
| RRIRRRPPRLPRPRPRPPINPRP | 0.0262 |
| RRIRFRPPRLPRPRPRPIVTPRP | -0.075 |
| RRIRCRPPRLPRPRPRPVIHPRP | -0.567 |
| RRIRMRPPRLPRPRPRPNELPRP | 0.0804 |
| RRIRLRPPRLPRPRPRPPQIPRP | 0.0736 |
| RRIRKRPPRLPRPRPRPPDYPRP | 0.145 |
| RRIRNRPPRLPRPRPRPGSSPRP | 0.0992 |
| RRIRMRPPRLPRPRPRPEFHPRP | 0.0755 |
| RRIRERPPRLPRPRPRPCEYPRP | -0.0121 |
| RRIRHRPPRLPRPRPRPPGEPRP | 0.418 |
| RRIRYRPPRLPRPRPRPARKPRP | -0.486 |
| RRIRMRPPRLPRPRPRPIHHPRP | -0.724 |
| RRIRLRPPRLPRPRPRPEAIPRP | 0.0246 |
| RRIRKRPPRLPRPRPRPWLGPRP | 1.57 |
| RRIRQRPPRLPRPRPRPEDCPRP | 0.0138 |
| RRIRERPPRLPRPRPRPHTIPRP | -0.217 |
| RRIRERPPRLPRPRPRPCEKPRP | 0.0102 |
| RRIRERPPRLPRPRPRPFAHPRP | 0.117 |
| RRIRDRPPRLPRPRPRPRQAPRP | 0.102 |
| RRIRWRPPRLPRPRPRPFWWPRP | 0.402 |
| RRIRMRPPRLPRPRPRPNDLPRP | 0.0853 |
| RRIRPRPPRLPRPRPRPFHAPRP | -0.0472 |
